The record followed here is PMC10933263 (EMBO Reports, 2024).

The target in assay [1] is bovine adenylyl cyclase AC8, purified, tag-free (bovine) (UniProt E1BQ12).
Assay [2] has the same target. The source holds these as a separate data set.
The target in assay [3] is bovine adenylyl cyclase AC8, purified, tag-free (bovine, UniProt E1BQ12 1-1253). Nature of the assay: cell-based or functional assay.

“G protein beta gamma subunit (Gβ1γ2) (from UniProt P62871 1-340; P63212 1-71) (complex)” registered an inhibition of AC8 adenylyl cyclase activity (cAMP accumulation) by Gβγ, IC50 in assay [1] of 400 nM. “Calmodulin (from bovine testes, Sigma-Aldrich P1431) (from UniProt P62157 1-149) (natural protein)”: in assay [2], the activation of AC8 adenylyl cyclase activity (cAMP accumulation) by CaM in the absence of CaCl2, EC50 was 86.6 nM and the activation of AC8 adenylyl cyclase activity (cAMP accumulation) by CaM in the presence of CaCl2, EC50 was found to be 4.1 nM.

B1: bovine G protein αs subunit, GTPγS-activated (natural protein, UniProt P04896-1 1-394, looked up)
chain: MGCLGNSKTEDQRNEEKAQREANKKIEKQLQKDKQVYRATHRLLLLGAGESGKSTIVKQMRILHVNGFNGEGGEEDPQAARSNSDGEKATKVQDIKNNLKEAIETIVAAMSNLVPPVELANPENQFRVDYILSVMNVPDFDFPPEFYEHAKALWEDEGVRACYERSNEYQLIDCAQYFLDKIDVIKQDDYVPSDQDLLRCRVLTSGIFETKFQVDKVNFHMFDVGGQRDERRKWIQCFNDVTAIIFVVASSSYNMVIREDNQTNRLQEALNLFKSIWNNRWLRTISVILFLNKQDLLAEKVLAGKSKIEDYFPEFARYTTPEDATPEPGEDPRVTRAKYFIRDEFLRISTASGDGRHYCYPHFTCAVDTENIRRVFNDCRDIIQRMHLRQYELL
Take B1: the “activation of AC8 adenylyl cyclase activity (cAMP accumulation) by GTPγS-bound Gαs, EC50” value in assay [3] turned out to be 25.5 nM.
